Reference: EP4813396A2 (Amphivena Therapeutics, Inc., dated 2026)
Values joined by “and” are separate entries in the source; they are usually repeats but may differ in a detail not shown here. Equal values may be shown once.

Legend:
[1] = target: T1, human CD33 on cells (human, UniProt P20138 18-364); experiment: cell-based or functional assay
[2] = target: T1, human CD33 on cells; experiment: cell-based or functional assay; remark: listed apart in the source
[3] = target: T2, human CD3 on T cells (human, UniProt P07766 23-207); experiment: cell-based or functional assay
T2 sequence (P07766 23-207): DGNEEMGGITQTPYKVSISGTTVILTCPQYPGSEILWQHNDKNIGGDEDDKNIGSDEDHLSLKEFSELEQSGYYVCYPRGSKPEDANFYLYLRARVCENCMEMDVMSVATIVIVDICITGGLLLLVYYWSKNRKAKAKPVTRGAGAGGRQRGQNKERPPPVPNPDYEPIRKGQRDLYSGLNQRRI

[4] = target: T1, human CD33 on cells; experiment: flow cytometry, HL-60 cells
[5] = target: T1, human CD33 on cells; experiment: flow cytometry, titration on KG-1 cells
[6] = target: T1, human CD33 on cells; experiment: flow cytometry, titration on HL-60 cells
[7] = target: T1, human CD33 on cells; experiment: flow cytometry, titration on U-937 cells
[8] = target: T2, human CD3 on T cells; experiment: flow cytometry, human T-cells (as headed in Table 10)
[9] = target: T2, human CD3 on T cells; experiment: flow cytometry, titration on human CD3+ T cells (Jurkat per paragraph 124/paragraph 125)
[10] = target: cynomolgus CD33 on CHO cells (cynomolgus monkey); experiment: flow cytometry; KD on CHO-cynomolgus CD33 cells divided by KD on CHO-human CD33 cells
[11] = target: T1, human CD33 on cells; experiment: cell-based or functional assay; remark: listed apart in the source
[12] = target: T1, human CD33 on cells; experiment: cell-based or functional assay; remark: listed apart in the source
[13] = target: T1, human CD33 on cells; experiment: cell-based or functional assay; remark: listed apart in the source

T1 sequence (P20138 18-364): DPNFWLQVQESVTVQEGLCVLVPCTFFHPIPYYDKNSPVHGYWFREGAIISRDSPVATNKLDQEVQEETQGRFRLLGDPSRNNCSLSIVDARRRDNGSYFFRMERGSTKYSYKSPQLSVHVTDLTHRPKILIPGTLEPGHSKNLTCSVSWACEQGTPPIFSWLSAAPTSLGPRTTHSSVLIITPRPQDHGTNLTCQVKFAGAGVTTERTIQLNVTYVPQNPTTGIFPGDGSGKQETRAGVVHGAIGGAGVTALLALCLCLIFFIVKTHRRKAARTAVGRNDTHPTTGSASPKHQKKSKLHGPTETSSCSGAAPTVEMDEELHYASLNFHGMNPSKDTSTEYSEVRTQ

B1: CD33/CD3 tandem diabody 19 (bispecific antibody)
chain: DIQMTQSPSSLSASVGDRVTITCRSSTGAVTTSNYANWVQQKPGKAPKALIGGTNKRAPGVPSRFSGSLIGDKATLTISSLQPEDFATYYCALWYSNLWVFGQGTKVEIKGGSGGSQVQLVQSGAEVKKPGASVKVSCKASGYTFTSYYMHWVRQAPGQGLEWMGIINPSGGSTSYAQKFQGRVTMTRDTSTSTVYMELSSLRSEDTAVYYCARDVVPAAIDYYGMDVWGQGTTVTVSSGGSGQSVLTQPPSASGTPGQRVTISCSGSSSNIGSNTVNWYQQLPGTAPKLLIYSDNQRPSGVPDRFSGSKSGSSASLAISGLQSDDEADYYCATWDDSLNGAVFGGGTKLTVLGGSGGSEVQLVESGGGLVQPGGSLRLSCAASGFTFSTYAMNWVRQAPGKGLEWVGRIRSKYNNYATYYADSVKDRFTISRDDSKNSLYLQMNSLKTEDTAVYYCARHGNFGNSYVSYFAYWGQGTLVTVSSAAAGSHHHHHH
notes: Non-covalent homodimer; domain order 1; also called TandAb 19
IC50, lysis of KG-1 cells with human T cells (E:T 5:1, 24 h) [1]: ~5 pM | EC50 on HL-60 [pM] (cytotoxicity) [2]: 5.7 pM | CD25 Induction EC50 (pM) [3]: 9 pM | CD69 Induction EC50 (pM) [3]: 5 pM | T cell Proliferation in PBMC EC50 (pM) [3]: 6 pM | Kd [4]: 2800 pM | Kd [5]: 3600 pM | Kd [6]: 2800 pM | Kd [7]: 5400 pM | Kd [8]: 6300 pM | Kd [9]: 6300 pM | KD ratio cynoCD33/ huCD33 [10]: 37.3

B2: CD33/CD3 tandem diabody 12 (bispecific antibody)
chain: DIQMTQSPSSLSASVGDRVTITCRSSTGAVTTSNYANWVQQKPGKAPKALIGGTNKRAPGVPSRFSGSLIGDKATLTISSLQPEDFATYYCALWYSNLWVFGQGTKVEIKGGSGGSQVQLVQSGAEVKKPGASVKVSCKASGYTFTSYDINWVRQAPGQGLEWMGWMNPNSGNTGFAQKFQGRVTMTRDTSTSTVYMELSSLRSEDTAVYYCARDRAVTDYYYGMDVWGQGTLVTVSSGGSGQSVLTQPPSASGTPGQRVTISCSGSRSNIGSNTVNWYQQLPGTAPKLLIYGNNQRPSGVPDRFSGSKSGTSASLAISGLQSEDEADYYCATWDDSLIGWVFGGGTKLTVLGGSGGSEVQLVESGGGLVQPGGSLRLSCAASGFTFSTYAMNWVRQAPGKGLEWVGRIRSKYNNYATYYADSVKDRFTISRDDSKNSLYLQMNSLKTEDTAVYYCARHGNFGNSYVSYFAYWGQGTLVTVSSAAAGSHHHHHH
notes: Non-covalent homodimer; domain order 1; also called TandAb 12
IC50, lysis of KG-1 cells with human T cells (E:T 5:1, 24 h) [1]: ~0.01 pM | EC50 on HL-60 [pM] (cytotoxicity) [2]: 1.3 pM | EC50 [pM (pg/mL)] on human CD33+ target cell lines: HL-60 (cytotoxicity, E:T 5:1, 20-24 h) [11]: 1.3 pM and 137 pg/mL | EC50 [pM (pg/mL)] on human CD33+ target cell lines: KG-1 (cytotoxicity, E:T 5:1, 20-24 h) [11]: 1.2 pM and 126 pg/mL | EC50 [pM (pg/mL)] on human CD33+ target cell lines: U-937 (cytotoxicity, E:T 5:1, 20-24 h) [11]: 0.8 pM and 84 pg/mL | EC50 [pM (pg/mL)] on human CD33+ target cell lines: mean of HL-60, U-937, KG-1 [11]: 1.1 pM and 116 pg/mL | CD25 Induction EC50 (pM) [3]: 6 pM | CD69 Induction EC50 (pM) [3]: 3 pM | T cell Proliferation in PBMC EC50 (pM) [3]: 2 pM | EC50 [pM] mean, cytotoxicity on BV-173 cells [12]: 1.4 pM | EC50 [pM] mean, cytotoxicity on CHO-CD33 cells [12]: 11.8 pM | EC50 [pM] mean, cytotoxicity on HL-60 cells [12]: 1.4 pM | EC50 [pM] mean, cytotoxicity on K562 cells [12]: 4.5 pM | EC50 [pM] mean, cytotoxicity on KASUMI-1 cells [12]: 1.3 pM | EC50 [pM] mean, cytotoxicity on KG-1 cells [12]: 1 pM | EC50 [pM] mean, cytotoxicity on RPMI-8226 cells [12]: 14 pM | EC50 [pM] mean, cytotoxicity on THP-1 cells [12]: 1.9 pM | EC50 [pM] mean, cytotoxicity on U-937 cells [12]: 0.9 pM | Kd [4]: 300 pM | Kd [5]: 900 pM | Kd [6]: 300 pM | Kd [7]: 500 pM | Kd [8]: 1500 pM | Kd [9]: 1500 pM | KD ratio cynoCD33/ huCD33 [10]: 1.7

B3: CD33/CD3 tandem diabody 16 (bispecific antibody)
chain: DIQMTQSPSSLSASVGDRVTITCRSSTGAVTTSNYANWVQQKPGKAPKALIGGTNKRAPGVPSRFSGSLIGDKATLTISSLQPEDFATYYCALWYSNLWVFGQGTKVEIKGGSGGSQVQLVQSGAEVKKPGASVKVSCKASGYTFTSYDINWVRQAPGQGLEWMGWMNPNSGNTGFAQKFQGRVTMTRDTSTSTVYMELSSLRSEDTAVYYCARDRANTDYSLGMDVWGQGTLVTVSSGGSGQSVLTQPPSASGTPGQRVTISCSGSRSNIGSNTVNWYQQLPGTAPKLLIYGNNQRPSGVPDRFSGSKSGTSASLAISGLQSEDEADYYCATWDDSLIGWVFGGGTKLTVLGGSGGSEVQLVESGGGLVQPGGSLRLSCAASGFTFSTYAMNWVRQAPGKGLEWVGRIRSKYNNYATYYADSVKDRFTISRDDSKNSLYLQMNSLKTEDTAVYYCARHGNFGNSYVSYFAYWGQGTLVTVSSAAAGSHHHHHH
notes: Non-covalent homodimer; domain order 1; also called TandAb 16
IC50, lysis of KG-1 cells (separate experiment) [1]: 5 pM | IC50, lysis of KG-1 cells with human T cells (E:T 5:1, 24 h) [1]: ~0.5 pM | EC50 on HL-60 [pM] (cytotoxicity) [2]: 1.5 pM | EC50 [pM (pg/mL)] on human CD33+ target cell lines: HL-60 (cytotoxicity, E:T 5:1, 20-24 h) [11]: 1.5 pM and 158 pg/mL | EC50 [pM (pg/mL)] on human CD33+ target cell lines: KG-1 (cytotoxicity, E:T 5:1, 20-24 h) [11]: 1.8 pM and 189 pg/mL | EC50 [pM (pg/mL)] on human CD33+ target cell lines: U-937 (cytotoxicity, E:T 5:1, 20-24 h) [11]: 1.9 pM and 200 pg/mL | EC50 [pM (pg/mL)] on human CD33+ target cell lines: mean of HL-60, U-937, KG-1 [11]: 1.7 pM and 179 pg/mL | CD25 Induction EC50 (pM) [3]: 1 pM | CD69 Induction EC50 (pM) [3]: 2 pM | T cell Proliferation in PBMC EC50 (pM) [3]: 3 pM | EC50 [pM] mean, cytotoxicity on BV-173 cells [12]: 3.2 pM | EC50 [pM] mean, cytotoxicity on CHO-CD33 cells [12]: 24 pM | EC50 [pM] mean, cytotoxicity on HL-60 cells [12]: 1.6 pM | EC50 [pM] mean, cytotoxicity on K562 cells [12]: 4.8 pM | EC50 [pM] mean, cytotoxicity on KASUMI-1 cells [12]: 2.4 pM | EC50 [pM] mean, cytotoxicity on KG-1 cells [12]: 1.9 pM | EC50 [pM] mean, cytotoxicity on RPMI-8226 cells [12]: 2.8 pM | EC50 [pM] mean, cytotoxicity on THP-1 cells [12]: 6 pM | EC50 [pM] mean, cytotoxicity on U-937 cells [12]: 1.3 pM | EC50 [pM], calcein release, HL-60 targets, E:T 25:1, incubation 30 min [13]: 4.8 pM | EC50 [pM], calcein release, HL-60 targets, E:T 25:1, incubation 60 min [13]: 2.5 pM | EC50 [pM], calcein release, HL-60 targets, E:T 25:1, incubation 120 min [13]: 1.6 pM | EC50 [pM], calcein release, HL-60 targets, E:T 25:1, incubation 180 min [13]: 1.6 pM | EC50 [pM], calcein release, HL-60 targets, E:T 25:1, incubation 240 min [13]: 1.5 pM | EC50 [pM], calcein release, HL-60 targets, E:T 25:1, incubation 300 min [13]: 1.6 pM | Kd [4]: 300 pM | Kd [5]: 200 pM | Kd [6]: 300 pM | Kd [7]: 300 pM | Kd [8]: 5100 pM | Kd [9]: 2100 pM | KD ratio cynoCD33/ huCD33 [10]: 1.4
